The text below walks through data of US20230008090A1.

Assay [1] addresses human EGFR on tumor cells (A431, HT-29, MCF-7) (human) (UniProt P00533). Kind of assay: flow cytometry on A431 (EGFR+/CD3-) cells.
The target of assay [2] is human CD3 on Jurkat.2B8 (CD3+/EGFR-) cells (human) (UniProt P07766). The assay is described as follows: flow cytometry on Jurkat.2B8 (CD3+/EGFR-) cells.
Assay [3] deals with cynomolgus monkey CD3 on cynomolgus monkey PBMC / T cells (cynomolgus monkey) (UniProt Q95LI5). The assay is described as follows: flow cytometry on cyno T cells (cynomolgus monkey PBMC).
Chain of cynomolgus monkey CD3 on cynomolgus monkey PBMC / T cells (cynomolgus monkey) (Q95LI5 22-198): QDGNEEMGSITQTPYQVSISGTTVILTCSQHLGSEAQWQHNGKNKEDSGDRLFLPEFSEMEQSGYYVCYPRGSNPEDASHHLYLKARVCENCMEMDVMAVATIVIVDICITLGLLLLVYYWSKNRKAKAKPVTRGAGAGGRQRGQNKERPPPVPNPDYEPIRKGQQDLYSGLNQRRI
In assay [4] the target is cynomolgus monkey EGFR on CHOK1-cynoPro1 (EGFR+/CD3-) cells (cynomolgus monkey). The assay is described as follows: flow cytometry on CHOK1-cynoPro1 cells.

Chain of human CD3 on Jurkat.2B8 (CD3+/EGFR-) cells (human) (P07766 23-207): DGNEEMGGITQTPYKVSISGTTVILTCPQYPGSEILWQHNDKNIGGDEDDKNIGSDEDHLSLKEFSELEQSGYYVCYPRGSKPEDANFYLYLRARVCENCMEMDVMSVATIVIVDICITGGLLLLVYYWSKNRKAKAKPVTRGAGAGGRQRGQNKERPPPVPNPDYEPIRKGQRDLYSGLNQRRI

Turning to IgG4 isotype control (antibody), the Top MFI worked out at 137 MFI in assay [1], 235 MFI in assay [2], 210 MFI in assay [3] and 38 MFI in assay [4].
